Results: the supplement of paper PMC12042874
± gives the uncertainty stated by the source.

assay: amyloid nucleation score (Sup35N fusion, yeast selection) (log enrichment); library NNK3; higher = more nucleation; inactive = no reads after selection
How it was run: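 Peptides of 20 random codons fused to Sup35N were expressed in psi-negative yeast, induced 24 hours with 100 μM copper sulfate, then grown 7 days at 30°C on medium lacking adenine and uracil. Input and output plasmid inserts were Illumina-sequenced. Nucleation score is the DiMSum log enrichment of output over input reads, centred on the mode score of non-aggregating sequences, excluding sequences with under 100 input reads. Random libraries had three technical output replicates.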

Substance | amyloid nucleation score
TRSIVY | inactive
SAWLATGTYEVKAQRG | inactive
PLNNGHLLSMPICKIRLVKA | inactive
SVNIMVMTVMNY | 1.81 ± 0.058
YTILVCYSAGVAYYNKGLVR | inactive
VRGKRTSLWDIKVDYSPDTV | inactive
FPGNLSLNGVIHMFLYDKLW | inactive
LSYKIIYTGIGCEYAYGFIE | inactive
KVIKDNLEVCFLKSMWC | inactive
IVERSGVSGIWYLSGDLAKV | inactive
RMESTYGYVLDVSIEVLWGI | inactive
VLGYDGAGKVVIFDVNLAGL | 1.87 ± 0.083
IVTIFSFQYGWGFLCTRLNF | inactive
DLDGVPTHSVVERMKTWLDT | inactive
RKVGRLIPFHFCSN | inactive
CLYFY | 1.93 ± 0.1
EMLYTLIIVYLVNMYFCTQS | inactive
GVKCPKKTNRQWGIVALMRP | inactive
NSCYTASCS | -0.381 ± 0.63
SLVWTDRNYVSTNGSSCVWL | inactive
HLCDFPLEVKTLFFLL | 0.508 ± 0.17
IPFTENSVPPFKGLTVSSNV | inactive
EIVRRSSVISCHRT | inactive

Substance | amyloid nucleation score
VMNLEPRSHVWYVTVFSHAS | 1.68 ± 0.096
NHSVNAARNLQHQSYCKKSV | inactive
YAVYRTPFVSKLAMFQLVQ | -1.04 ± 1.9
TGRAFIIPVHAFRYDSVVGV | inactive
TRIGSTEKTEQSVWD | -0.198 ± 0.75
VHSCLLCHWSFYWLLFFMRS | inactive
LCSDLVFHNR | inactive
KIRIGW | inactive
YYTFSVHSYGEFMRCLFIQH | inactive
FVSWWNRSYVCVWIKLMNWR | inactive
RRAYVKQGVEFRIWNCYYWL | 0.667 ± 0.16
LYSKCFGVRLHYVFSMSWSG | inactive
EVSSTDL | inactive
LSSFHHRQVLHRAVAKPFTA | 0.245 ± 0.75
CFSVGKWSIFRN | inactive
YFSISLLTSK | inactive
YGCWQRWSRQVGYFRGDKAC | inactive
FCDGPGTKY | inactive
SGNDNFYVDCNWLNIIVNET | 2.79 ± 0.078
MLEEGVHINSGLMIVWYIIM | inactive
FSVGFYFIYMTLKCGSCVQW | -0.362 ± 1.1
SNPVFFVMLAPLWVAQLSNP | inactive
RFDIK | inactive

Substance | amyloid nucleation score
SMSSELCLGNRHYG | inactive
FVYWLILYLRRVAERR | inactive
IELRM | inactive
LVLSWVITEVMDRVWRGSRG | inactive
YPGMQEYVLGWNVWREK | inactive
HRTCITTNDDCLSRGTLP | inactive
VCYPHLYWMDPGWVS | inactive
LETFI | inactive
THISQNLQSVVHLYVLRKVV | inactive
IHPVNLRVLSFGHIWCWYLR | inactive
RVMRSDDVWMCSSLHDFCAV | inactive
RTFRSFSQVYRPILRRGHSG | inactive
MKRGWFELMIHWDYI | inactive
WFPSKYIATMFCLQVFLVKP | inactive
FSPFNAENSETVTCTGCSHC | inactive
NCICDIYILTLELSLLRRWV | inactive
ELIWAEGYRKSCKLGPVIS | inactive
FGSPYWLAYIV | inactive
LLGMLIRGDAF | inactive
MMCPLKLWYHVWFSGYTL | inactive
EVKDAWIMSYSLNYWQRLYM | inactive
NVAAISGILYSLLTFFLSGG | inactive
SVLVDY | inactive

Substance | amyloid nucleation score
LPVEMKLLIMMRVPSFHFRH | inactive
CLTLYRHQ | 0.313 ± 0.54
SFSMKKGQHQLIS | inactive
WQWVM | inactive
ILVGNFSILWY | inactive
ILVIIKNHFVFFAGR | inactive
NAFWAILVGPIDPEVSGTYG | inactive
MRNTFRTHSKQYHHG | inactive
VSLKVIDKNFNFHVMYGCID | inactive
VTLLWFISPFMMHWWVQRNG | -0.191 ± 1
SPFCYRR | inactive
LRVFWRTFCVSWSECNKMLE | inactive
NCTDLLRMLYGMRRGINSNC | inactive
DFYIGTGLISKVRLGHRCSC | -0.305 ± 0.44
IVEGHLSIIGWYEGNFPHML | 0.145 ± 0.42
LDLNLRVRVLFKFTTGLTFF | inactive
TFVLRDTDVCKCSSYKRPNF | inactive
GHFLISIKKLL | inactive
GHLMGETTY | inactive
TLCLQKHPSFGDYIFG | inactive
GRPHEPGKFIRNSSIGSGS | -0.479 ± 1.1
ARIFH | inactive
VGWNQDGDHMKSLKVAWARW | inactive

Substance | amyloid nucleation score
VFCKNLNYALRMPSKWGLYT | inactive
IRNFSLKPISSNLNSL | inactive
RDSCFNIDFKEEVVRKVSMA | 0.827 ± 0.18
KMHWNAGDQLYVRSPTHSLR | inactive
IVDAIILWCSKILIWVGIGQ | inactive
VRLSVMG | inactive
AFKWSRSCGMWLTDIGAWW | inactive
RRFCRYVYEMG | inactive
ERQFMFYKVTVVIPTSHLCS | inactive
SPLSRTFTPTYAGDMLLNSS | inactive
VSYNFGYAYECLGYVRFV | 0.572 ± 0.36
FCVPKCYSHWYLVFS | 1.03 ± 0.12
QWGSWE | inactive
YTALHWLYFVSCKFDEKVQW | inactive
GLRDMGDKYVYMVSGGCIYG | 2.19 ± 0.069
LQPKLGIT | inactive
KNIKTSIIYSYYALIIR | 2.47 ± 0.074
DVYISKDIRCCYLLKTFLPY | 0.123 ± 0.27
KRDWHLVTMG | -0.134 ± 0.32
CRQWCDWCTGSYPGYCFQC | inactive
IVVCFRSRRFCSSRYHS | inactive
LSRFQVGFHQIDIMRGDVWK | inactive
CGQFVEISKYG | inactive

Substance | amyloid nucleation score
MRASCCKCVHICTYMSDRFD | 0.743 ± 0.22
RLYLVGYRLIRCRFGILGAC | inactive
TMQEGRLSSWYSTVFFS | -0.073 ± 0.43
VYRNVHMFSRWQDFNPLGAR | inactive
EAGSVSYWFVATRPLKRACP | inactive
ALSVSSLALANDDVTG | inactive
SYGQSCCQDTGLSRNALMQ | inactive
LCVFKWLILREYISITHDSI | inactive
SSPKMMCSFFDMSTLPFVYD | inactive
RVFIDRDRP | inactive
IGIINMSLN | 1.19 ± 0.11
LRPVRYRLCVRFNWMCVRCK | -0.582 ± 0.95
DVTRTCRYGEVYDWTIKIRP | inactive
WVCLWVIVLYHIPVLNKLLS | inactive
FTRYRNVFKWTMWFSYFWQA | inactive
TGSVVYLKRDVPAIFKFLLV | inactive
EFWLISFQSQLSFYCDFRYD | inactive
IGPVTLKERETRTP | inactive
YDSKDF | inactive
FQKLEVNKLGIIWNHVLTRK | inactive
VFEVVYV | inactive
YWVRNVLNS | inactive
HYAAFFYLLINMTGHAHFLK | inactive

Substance | amyloid nucleation score
QSCVIVLKIGFWDVHSSMTF | 0.426 ± 0.19
SCLRHPSTSSQNKSCLPDIP | inactive
HVSAARMFSSYDPRKPGENM | inactive
GKVATHSIHDYFELSMTKGC | inactive
FRESFLSSYVEYMTLGPGSN | -0.342 ± 0.87
EATWMSLRYV | inactive
RFWMRKY | inactive
VVIIK | inactive
GVYSVSLLVLWMSMRASIAC | inactive
HTLLHEF | inactive
HKWSAAIEIGSVKDNRIKLL | inactive
LYRSMH | inactive
AGPVMRRLFVNGWFVVFGRM | inactive
LFKMSV | inactive
YGVYINEAVEVRGPHAYMTS | inactive
ADLRIRSSSCRPSADINFG | inactive
RLMLLVTPAISFMSF | inactive
LRAEVLSSYVTWVHAEGPHC | inactive
CCVMHDE | inactive
IFIGVGNVGEVLVIYSWQRN | 0.035 ± 0.48
TPVMRSVNMMVLKTI | inactive
NSGLSIVWDWLDCFSGMKYS | inactive
